Assay results from IntAct's records for PubMed 24034250.

B1: Apoptosis regulator Bcl-2 homolog (Murid herpesvirus 4 (MuHV-4)), P89884 (parent)
chain: MSHKKSGTYWATLITAFLKTVSKVEELDCVDSAVLVDVSKIITLTQEFRRHYDSVYRADYGPALKNWKRDLSKLFTSLFVDVINSGRIVGFFDVGRYVCEEVLCPGSWTEDHELLNDCMTHFFIENNLMNHFPLEDIFLAQRKFQTTGFTFLLHALAKVLPRIYSGNVIYV

Variants of: B1
Details: with becn1_human BECN1, Q14457
Sequence of becn1_human BECN1, Q14457 (Q14457 whole entry): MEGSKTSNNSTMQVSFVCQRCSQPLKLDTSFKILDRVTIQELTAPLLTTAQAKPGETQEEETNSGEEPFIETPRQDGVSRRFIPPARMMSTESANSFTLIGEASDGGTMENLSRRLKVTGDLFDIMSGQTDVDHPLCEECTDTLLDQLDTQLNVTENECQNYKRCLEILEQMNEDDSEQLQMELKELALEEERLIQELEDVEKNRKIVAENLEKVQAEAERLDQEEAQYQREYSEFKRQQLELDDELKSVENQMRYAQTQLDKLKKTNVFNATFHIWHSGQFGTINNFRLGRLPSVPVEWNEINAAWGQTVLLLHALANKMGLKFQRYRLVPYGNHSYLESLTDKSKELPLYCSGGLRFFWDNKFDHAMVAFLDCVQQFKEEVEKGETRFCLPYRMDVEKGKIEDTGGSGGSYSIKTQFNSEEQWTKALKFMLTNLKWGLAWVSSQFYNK
S85A;G86A;R87A was tested, and the “effect of a mutation on the interaction” value was “decreasing interaction strength”.

Variants of: B1
Details: with bax_human BAX
For S85A;G86A;R87A, the “effect of a mutation on the interaction” value was “decreasing interaction strength”.
